These results are taken from patent publication US10400230B2, “Protease variants and polynucleotides encoding same” (NOVOZYMES A/S, priority 2014, dated 2019).

Where a chain is given by its changes, count along the chain named. Names may count otherwise.

Test [1] is described as follows: Determination of binding constants of inhibitor (NNIC) in Model B detergent, Suc-AAPF-pNA read-out. The class given is biochemical. The settings on record: Ki of variant with the mutation relative to variant without the mutation, <1.0 beneficial. The protocol: (§1) Purified protease variants are pre-diluted to approximately 0.2 mg/ml in dilution buffer. 40 μl diluted protease is then mixed with 40 μl inhibitor solution (Z-Gly-Ala-NHCH(CH2C6H4pOH)C(OH)(SO3Na)—H, wherein Z is benzyloxycarbonyl) or 40 μl 4-FPBA solution in the well of a 96 well microtiter plate (Nunc F 96-MTP). […] After 10 min mixing of protease and inhibitor at room temperature, 30 μl of the mixture is transferred to a microtiter plate (Nunc U96 PP 0.5 ml) with 270 μl Model B detergent in the wells resulting in inhibitor concentrations of 0-30 μM and 4-FPBA concentrations of 0-6000 μM. Protease, inhibitor and detergent is mixed for 1 hour using magnetic bars for 1 hour at room temperature to reach equilibrium. Then 20 μl is transferred to a microtiter plate (Nunc F 96-MTP). 100 μl substrate solution is added and after 5 sec mixing absorbance at 405 nm is measured every 20 sec for 5 min on a SpectraMax Plus reader. Slope from linear regression of initial increase in absorbance at 405 nm is used for calculation of apparent binding constants.
(§2) It is assumed that protease and inhibitor react according to the equation: E+I ? EI
(§3) Where E is the protease, I is the inhibitor and EI is the protease-inhibitor complex. […] The concentration of enzyme-inhibitor in the detergent solution is then given by:
(§4) where Etot is the total protease concentration ([Etot]=[E]+[EI]), Itot is the total inhibitor concentration ([Itot]=[I]+[EI]), and Ki is the equilibrium binding constant for the reaction. The measured slopes V are given by:
(§5) where V0 is the slope without inhibitor added. To calculate apparent binding constant Ki least square fitting of measured slopes at various inhibitor concentrations to this equation is performed with Ki and V0 as variables.
The Ki for the parent protease and for each variant was calculated as described above
(§6) Having the Ki for each variant, it is possible to calculate the effect of a single mutation, if data are available for at least two variants that differ only by that mutation. In this case, the relative Ki for the mutation is calculated:
(§7) [formula] A lower Ki is desirable, as a satisfactory inhibition can be obtained at a lower inhibitor concentration, so beneficial mutations have a relative Ki<1.0 The following table show such relative Kimutation. Each row show: • a mutation (column 1: “Mutation”) • a protease variant (relative to SEQ ID NO: 2) that comprise the mutation from column 1 (column 2: “Variant with the mutation”) • another protease variant (relative to SEQ ID NO: 2), that differs from the one in column 2 only by not having the mutation in column 1 (column 3: “Variant without the mutation”) • Relative Kimutation for the mutation in column 1, in the context of the variant in column 3, measured in Model B detergent (column 4: “inhibitor binding in Model B”) • Relative Kimutation for the mutation in column 1, in the context of the variant in column 3, measured in Tris buffer at pH 8 (column 5: “inhibitor binding in Tris buffer pH 8”)
Ki were calculated as shown in Example 3. The Improvement Factor (IF) or Relative

Test [2] in a line: Determination of binding constants of inhibitor in Tris buffer at pH 8. Format: biochemical. The settings on record: Ki of variant with the mutation relative to variant without the mutation. The method, then:
as §1, §2, §3, §4, §5, §6, §7

B1: K146A, S173P, S175P, F180Y: TY145 protease (SEQ ID NO 3) variant with these substitutions (protein, listed as Bacillus sp.)
chain: AVPSTQTPWGIKSIYNDQSITKTTGGSGIKVAVLDTGVYTSHLDLAGSAEQCKDFTQSNPLVDGSCTDRQGHGTHVAGTVLAHGGSNGQGVYGVAPQAKLWAYKVLGDNGSGYSDDIAAAIRHVADEASRTGSKVVINMSLGSSAADSLIASAVDYAYGKGVLIVAAAGNSGPGPNTIGYPGGLVNAVAVAALENVQQNGTYRVADFSSRGNPATAGDYIIQERDIEVSAPGASVESTWYTGGYNTISGTSMATPHVAGLAAKIWSANTSLSHSQLRTELQNRAKVYDIKGGIGAGTGDDYASGFGYPRVK
With B1, the “Inhibitor-binding relative Kimutation, inhibitor binding in Model B” value in test [1] turned out to be 0.34. Also, in test [2], the “Inhibitor-binding relative Kimutation, inhibitor binding in Tris buffer pH 8” value was 0.29.

B2: K146T, S173P, S175P, F180Y: TY145 protease (SEQ ID NO 3) variant with these substitutions (protein, listed as Bacillus sp.)
chain: B1 chain with A146T
Turning to B2, the “Inhibitor-binding relative Kimutation, inhibitor binding in Model B” value in test [1] came out at 0.08. The “Inhibitor-binding relative Kimutation, inhibitor binding in Tris buffer pH 8” value in test [2] came to 0.06.

B3: I150N, S173P, S175P, F180Y: TY145 protease (SEQ ID NO 3) variant with these substitutions (protein, listed as Bacillus sp.)
chain: B1 chain with A146K, I150N
Regarding B3, in test [1], the “Inhibitor-binding relative Kimutation, inhibitor binding in Model B” value amounted to 0.35. Further, in test [2], the “Inhibitor-binding relative Kimutation, inhibitor binding in Tris buffer pH 8” value stood at 0.21.

B4: I150A, S173P, S175P, F180Y: TY145 protease (SEQ ID NO 3) variant with these substitutions (protein, listed as Bacillus sp.)
chain: B1 chain with A146K, I150A
As for B4, the “Inhibitor-binding relative Kimutation, inhibitor binding in Model B” value in test [1] is given as 0.50. Further, in test [2], the “Inhibitor-binding relative Kimutation, inhibitor binding in Tris buffer pH 8” value is given as 0.40.

B5: S114Q, S173P, S175P, F180Y: TY145 protease (SEQ ID NO 3) variant with these substitutions (protein, listed as Bacillus sp.)
chain: B1 chain with S114Q, A146K
With B5, the “Inhibitor-binding relative Kimutation, inhibitor binding in Model B” value in test [1] amounted to 0.63. For the same molecule, the “Inhibitor-binding relative Kimutation, inhibitor binding in Tris buffer pH 8” value in test [2] worked out at 0.34.
